Assay results reported in patent US20070178531A1 (BIOCHECK, published 2007).

T1: Human Id1: Histidine (human, UniProt P41134 1-155, limits assumed)
T1 construct: Fusion protein made in E. coli from vector pGW07; also called h-Id1: his; not shown: His tag
T1 sequence (looked up): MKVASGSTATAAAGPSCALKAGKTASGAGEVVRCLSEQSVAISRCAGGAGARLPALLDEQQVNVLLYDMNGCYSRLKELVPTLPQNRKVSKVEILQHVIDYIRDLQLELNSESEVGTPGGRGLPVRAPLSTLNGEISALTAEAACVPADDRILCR

T2: Human Id2: Histidine (human, UniProt Q02363 1-134, limits assumed)
T2 construct: Fusion protein made in E. coli from vector pGW07; also called h-Id2: His; not shown: His tag
T2 sequence (looked up): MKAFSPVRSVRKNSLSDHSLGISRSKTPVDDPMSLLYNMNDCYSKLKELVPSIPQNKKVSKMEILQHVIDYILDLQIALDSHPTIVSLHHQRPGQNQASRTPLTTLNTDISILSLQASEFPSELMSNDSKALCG

T3: Mouse Id1: Histidine (mouse, UniProt P20067-2 1-148, limits assumed)
T3 construct: Fusion protein made in E. coli from vector pGW07; also called m-Id1-His; not shown: His tag
T3 sequence (looked up): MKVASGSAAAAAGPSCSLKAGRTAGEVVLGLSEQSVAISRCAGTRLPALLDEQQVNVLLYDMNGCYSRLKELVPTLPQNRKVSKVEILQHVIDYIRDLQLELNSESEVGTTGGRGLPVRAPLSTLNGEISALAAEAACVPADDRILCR

T4: Mouse Id2: Histidine (mouse, UniProt P41136 1-134, limits assumed)
T4 construct: Fusion protein made in E. coli from vector pGW07; also called m-Id2: His; not shown: His tag
T4 sequence (looked up): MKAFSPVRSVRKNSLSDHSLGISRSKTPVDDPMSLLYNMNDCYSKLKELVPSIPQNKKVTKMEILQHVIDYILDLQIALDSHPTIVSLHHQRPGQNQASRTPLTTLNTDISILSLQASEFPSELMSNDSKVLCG

T5: Human Id3: Histidine (human, UniProt Q02535 1-119 at identity 1.00))
T5 construct: Fusion protein made in E. coli from vector pGW07; also called h-Id3: His; Human Id3 (coated wells); not shown: His tag
T5 chain: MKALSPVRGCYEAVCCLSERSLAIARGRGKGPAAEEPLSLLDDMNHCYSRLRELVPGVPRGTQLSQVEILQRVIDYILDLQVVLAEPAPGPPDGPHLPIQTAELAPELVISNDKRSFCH

T6: Mouse Id3: Histidine (mouse, UniProt P41133 1-119)
T6 construct: Fusion protein made in E. coli from vector pGW07; also called m-Id3: His; Mouse Id3 (coated wells); not shown: His tag
T6 sequence: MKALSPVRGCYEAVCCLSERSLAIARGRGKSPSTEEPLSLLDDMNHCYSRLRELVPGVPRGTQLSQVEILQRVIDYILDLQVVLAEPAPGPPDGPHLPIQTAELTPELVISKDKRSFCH

B1: rabbit monoclonal anti-human Id3, clone #BCH-4/#3-3 (antibody, V domains shown)
VH: QSVEESGGRLVTPGTPLTLTCTVSGIDLSSYAMSWVRQAPGKGLEWIGVIFPSNNVYYASWAKGRFTISKTSTTVDLKITSPTTEDTATYFCASMGAFDSWGPGTLVTVSS
VL: QVLTQTPSPVSAAVGGTVTINCQASQSIYNDNDLAWFQQKPGQPPKLLIYDASTLTSGVPSRFKGSGSGTQFTLTISDLDCDDAATYYCAARYSGNIYGFGGGTEVVVK
notes: Rabbit IgG from a rabbit hybridoma; also called h Id3 MoAb 3-3
B2: rabbit monoclonal anti-mouse/human Id3, clone #BCH-4/#16-1 (antibody, V domains shown)
VH: QSVEESGGRLVTPGTPLTLTCTASGFSLSSYYIHWVRQAPGKALEWIGYISDGGTTYYASWAKGRFTISKTSSTTVDLKMTSLTTEDTATYFCARQGFNIWGPGTLVTVSL
VL: AVLTQTPSPVSAAVGGTVTISCQSSQSVYNNNWLSWFQQKSGQPPKLLIYETSKLESGVPSRFKGSGSGTQFTLTIIDVQCDDAATYYCLGGYWTTSDNNIFGGGTEVVVK
notes: Rabbit IgG from a rabbit hybridoma; also called m/h Id3 MoAb 16-1
B3: rabbit monoclonal anti-mouse/human Id3, clone #BCH-4/#17-3 (antibody, V domains shown)
VH: QSVEESGGRLVTPGTPLTLTCTASGFSLSNVYIHWVRQAPGKGLEWIGYISDGDTARYATWAKGRFTISKTSSTTVNLKMTSLTTEDTATYFCARQGFNIWGPGTLVTVSL
VL: AVLTQTPSPVSAAVGGTVSISCQSSQSVWNNNWLSWFQQKPGQPPKLLIYETSKLESGVPSRFKGSGSGTQFTLTISDVQCDDAATYYCLGGYWTTSDNNVFGGGTEVVVK
notes: Rabbit IgG from a rabbit hybridoma; also called m/h Id3 MoAb 17-3; BCH-3/#17-3
B4: rabbit monoclonal anti-mouse/human Id3, clone #BCH-4/#6-1 (antibody, V domains shown)
VH: QSVEESGGRLVTPGTPLTLTCTASGFSLSNVYIHWVRQAPGKGLEWIGYISDGDTARYATWAKGRFTISKTSSTTVNLKMTSLTTEDTATYFCARQGFNIWGPGTLVTVSL
VL: AVLTQTPSPVSAAVGGTVSISCQSSQSVWNNNWLSWFQQKPGQPPKLLIYETSKLESGVPSRFKGSGSGTQFTLTISDVQCDDAATYYCLGGYWTTSDNNVFGGGTEVVVK
notes: Rabbit IgG from a rabbit hybridoma; also called m/h Id3 MoAb 6-1
B5: rabbit monoclonal anti-mouse/human Id3, clone #BCH-4/#42-1 (antibody, V domains shown)
VH: QSVEESGGRLVTPGTPLTLTCTASGFSLSSYYIHWVRQAPGKALEWIGYISDGGTTYYASWAKGRFTISKTSSTTVDLKMTSLTTEDTATYFCARQGFNIWGPGTLVTVSL
VL: AVLTQTPSPVSAAVGGTVTISCQSSQSVYNNNWLSWFQQKSGQPPKLLIYETSKLESGVPSRFKGSGSGTQFTLTIIDVQCDDAATYYCLGGYWSTSDNNIFGGGTEVVVK
notes: Rabbit IgG from a rabbit hybridoma; also called m/h Id3 MoAb 42-1

Legend:
Human Id1: Histidine [1] = molecular target: T1, Human Id1: Histidine; assay: ELISA, Ab 0.005 µg/ml
Description: (§1) The rabbit monoclonal anti-human Id3 (clone #3-3) and the rabbit monoclonal anti-mouse/human Id3 (clones #6-1, 16-1, 17-3, and 42-1) produced in Example 6 were tested reactivity against the following antigens: mouse Id1:His, human Id1:His, mouse Id2:His, human Id2:His, mouse Id3:His, human Id3:His, mouse Id4:His, human Id4:His and GST.
(§2) 1. Microtiter wells (prepared in accordance with Example 6) were coated (0.1 μg/well) with mouse Id1:His, human Id1:His, human Id2:His, human Id3:His, and 1.0 μg/well with GST. [0155] 2. Antibody Diluent: 0.25% (w/v) BSA in 0.015M KPO₄ Buffer, 0.85% (w/v) NaCl, 0.1% (w/v) NaN₃, pH=7.40 [0156] 3. Rabbit monoclonal anti-human Id3 (clone #3-3) prepared in Example 7 was diluted to […] with the antibody diluent. […] 4. Rabbit monoclonal anti-mouse/human Id3 (clones #6-1, 16-1, 17-3, 42-1) prepared in Example 7 was diluted to 0.005, 0.010, 0.025, 0.05, 0.10, 0.25, and 0.50 μg/ml with the antibody diluent. […] 5. Conjugate Diluent: 50% (v/v) which consists of an aqueous solution containing Fetal Bovine Serum in 0.05 M Tris, 1% (v/v) Proclin-300, pH 7.6. [0159] 6. Conjugate: Goat anti-rabbit IgG (H+L)-HRP conjugate. [0160] 7. TMB reagent. […] 8. Stop solution (1 N HCI). Method
(§3) 1. Dispense 100 μL of antibody diluent, diluted rabbit monoclonal human Id3, and mouse/human Id3 hybridoma supernatants into appropriate wells. […] 2. Incubate at room temperature with mechanical shaking at 750 rpm for 90 minutes. [0165] 3. Remove the incubation mixture by flicking plate content into an appropriate waste container followed by rinsing the wells 5 times with distilled water. [0166] 4. Strike the wells sharply onto absorbent paper or paper towels to remove all residual water droplets. [0167] 5. Dispense 100 μL of 1:50,000 Goat Anti-Rabbit IgG-HRP Conjugate Reagent into each well. Gently mix for 5 seconds. [0168] 6. Incubate at room temperature with mechanical shaking at 750 rpm for 90 minutes. [0169] 7. Repeat procedures 3 and 4. [0170] 8. Dispense 100 μL of TMB Reagent into each well. Gently mix for 5 seconds. [0171] 9. Incubate at room temperature with mechanical shaking at 750 rpm for 20 minutes. […] 10.

Human Id2: Histidine = molecular target: T2, Human Id2: Histidine; assay: ELISA, Ab 0.005 µg/ml
Description: as §1, §2, §3

Mouse Id1: Histidine [2] = molecular target: T3, Mouse Id1: Histidine; assay: ELISA, Ab 0.005 µg/ml
Description: as §1, §2, §3

Mouse Id2: Histidine [3] = molecular target: T4, Mouse Id2: Histidine; assay: ELISA, Ab 0.005 µg/ml
Description: as §1, §2, §3

Human Id1: Histidine [4] = molecular target: T1, Human Id1: Histidine; assay: ELISA on coated wells, summary
Human Id3: Histidine [5] = molecular target: T5, Human Id3: Histidine; assay: ELISA on coated wells, summary
Mouse Id1: Histidine [6] = molecular target: T3, Mouse Id1: Histidine; assay: ELISA on coated wells, summary
Mouse Id2: Histidine [7] = molecular target: T4, Mouse Id2: Histidine; assay: ELISA on coated wells, summary
Human Id3: Histidine [8] = molecular target: T5, Human Id3: Histidine; assay: ELISA, Ab 0.005 µg/ml
Description: as §1, §2, §3

Mouse Id3: Histidine = molecular target: T6, Mouse Id3: Histidine; assay: ELISA, Ab 0.005 µg/ml
Description: as §1, §2, §3

Human Id3: Histidine [9] = molecular target: T5, Human Id3: Histidine; assay: ELISA, Ab 0.025 µg/ml
Description: as §1, §2, §3

Binder | A450 (Human Id1: Histidine [1]) | A450 (Human Id2: Histidine) | A450 (Mouse Id1: Histidine [2]) | A450 (Mouse Id2: Histidine [3]) | Cross-reactivity (%) (Human Id1: Histidine [4]) | Cross-reactivity (%) (Human Id3: Histidine [5]) | Cross-reactivity (%) (Mouse Id1: Histidine [6]) | Cross-reactivity (%) (Mouse Id2: Histidine [7]) | A450 (Human Id3: Histidine [8]) | A450 (Mouse Id3: Histidine) | A450 (Human Id3: Histidine [9])
B1 | 0.047 A450 | 0.044 A450 | 0.044 A450 | 0.048 A450 | – | – | – | – | – | – | –
B2 | 0.042 A450 | 0.046 A450 | 0.046 A450 | 0.045 A450 | < 1% | 100% | < 1% | < 1% | 0.228 A450 | 0.24 A450 | 0.802 A450
B3 | 0.044 A450 | 0.045 A450 | 0.048 A450 | 0.052 A450 | < 1% | 100% | < 1% | < 1% | 0.33 A450 | 0.39 A450 | 1.27 A450
B4 | 0.044 A450 | 0.045 A450 | 0.047 A450 | 0.046 A450 | < 1% | 100% | < 1% | < 1% | 0.275 A450 | 0.312 A450 | 0.974 A450
B5 | 0.046 A450 | 0.043 A450 | 0.045 A450 | 0.05 A450 | < 1% | 100% | < 1% | < 1% | 0.382 A450 | 0.437 A450 | 1.44 A450
